Measurements taken from patent publication US20210147570A1 (Bristol-Myers Squibb, published 2021).
Positions count from the first letter of the chain named. Numbers in names are those of the source.

B1: anti-CD73 antibody 6E11 (antibody, human IgG1, kappa, V domains shown)
VH: EVQLVESGGALVQPGRSLRLSCAASGFTFDDYAMHWVRQAPGKGLEWVSGITWNSGGIGYADSVKGRFTISRDNAKNSLYLQMNSLRAEDTALYYCAKDRYYSSWLLFDNWGQGILVTVSS
VL: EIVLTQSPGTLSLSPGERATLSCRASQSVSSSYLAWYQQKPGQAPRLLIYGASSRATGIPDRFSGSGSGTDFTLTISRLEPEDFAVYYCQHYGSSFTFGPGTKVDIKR
modifications: biotinylated (sites not given)
notes: Used as the biotinylated capture reagent on streptavidin plates; also called biotinylated 6E11
B2: CD73.4-IgG2C219S.IgG1.1f (antibody, V domains shown)
VH: QVQLVESGGGVVQPGRSLRLSCAASGFTFSNYGMHWVRQAPGKGLEWVAVILYDGSNKYYPDSVKGRFTISRDNSKNTLYLQMNSLRAEDTAVYYCARGGSSWYPDSFDIWGQGTMVTVSS
VL: DIQMTQSPSSLSASVGDRVTITCRASQGISSWLAWYQQKPEKAPKSLIYAASSLQSGVPSRFSGSGSGTDFTLTISSLQPEDFATYYCQQYNSYPLTFGGGTKVEIKR
notes: IgG2 CH1/hinge (C219S) with IgG1.1f CH2/CH3 hybrid constant region; also called CD73.A; CD73.4-IgG2CS-IgG1.1f

Assays:
[1] = target: T1, soluble CD73 in human serum/peripheral blood (human, UniProt P21589 27-549, limits assumed); experiment: MSD ECL sandwich immunoassay, 6E11 as capture
T1 construct: also called sCD73; free soluble CD73
T1 sequence (looked up): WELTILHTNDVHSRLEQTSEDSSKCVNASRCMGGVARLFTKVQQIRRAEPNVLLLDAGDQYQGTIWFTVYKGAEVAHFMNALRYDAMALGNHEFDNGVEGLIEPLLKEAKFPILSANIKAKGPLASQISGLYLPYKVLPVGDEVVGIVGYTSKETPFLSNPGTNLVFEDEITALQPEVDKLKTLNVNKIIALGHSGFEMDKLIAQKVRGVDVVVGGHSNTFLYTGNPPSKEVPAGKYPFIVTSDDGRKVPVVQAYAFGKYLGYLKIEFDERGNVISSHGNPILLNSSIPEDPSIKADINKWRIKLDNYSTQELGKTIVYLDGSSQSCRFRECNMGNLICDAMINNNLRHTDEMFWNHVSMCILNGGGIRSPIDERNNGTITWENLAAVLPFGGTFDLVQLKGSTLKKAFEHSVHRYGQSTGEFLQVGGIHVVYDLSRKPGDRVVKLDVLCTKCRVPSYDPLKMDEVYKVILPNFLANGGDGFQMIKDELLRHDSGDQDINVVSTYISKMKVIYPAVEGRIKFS
Protocol: (§1) The free sCD73 assay utilizes biotinylated anti-CD73 antibody 6E11 (SEQ ID NOs: 28 and 29) to capture drug-unbound sCD73 from the test samples (as it competes with CD73.A for binding to hCD73). MSD Streptavidin Gold assay plates were coated overnight at 2 to 8° C. with 50 μL/well of biotinylated 6E11 diluted to a final concentration of 0.5 μg/mL in 1× DPBS buffer. The following day, the wells were washed using PBS with 0.05% Tween 20 and 0.5× StabilCoat prepared in water was added to wells at 100 μL per well and incubated at room temperature for one hour. Wells were then aspirated and plates were dried and pouched with desiccant. Test samples drawn from study animals were kept frozen at −70° C. […] Bound sCD73 was subsequently detected using ruthenylated anti-CD73 antibody 4C3 (SEQ ID NOs: 38 and 39) (previously prepared with 0.1% Proclin 300 at working concentration) at a final concentration of 0.125 μg/ml in Starting Block (PBS) at 50 μL per well. The plates were incubated for one hour at 25° C. with shaking, at about 500 rpm, and then washed again before adding 1× MSD Read Buffer prepared in water and then read on MSD Sector Imager 600 by electrochemiluminescenece (ECL) technology. […] Test samples were quantified using a 4-parameter logistic fit regression model.

[2] = target: T2, cynomolgus CD73 (in cell lines) (cynomolgus monkey, UniProt A0A2K5V5U7 27-549); experiment: CD73 binding in cell lines (cyno), median EC50; method not stated
T2 construct: whole, on cells; also called Cyno CD73
T2 sequence: T1 sequence (looked up) with M199T, T350A, V466I

[3] = target: T1, soluble CD73 in human serum/peripheral …; experiment: free (not bound by CD73.A) sCD73 ECL immunoassay on patient samples
Protocol: as §1

Row | Binder | binding result [1] | EC50 [2] [nM] | binding result [3]
1 | B1 | binds |  | 
2 | B2 |  | 0.3 | binds
